Data reported in the supplement of paper PMC5998384.

Columns and labels:
HeLa Kyoto [1] = test: melting temperature (median over replicates), in situ; higher = more thermally stable
HeLa Kyoto [2] = test: thermal stability score vs G1/S (z-score of summed log2 fold changes over temperatures); higher = more thermally stable than in G1/S
HeLa Kyoto [3] = test: solubility change mitosis vs G1/S (difference of NP-40 vs SDS log2 ratios) (log2 ratio difference); higher = more soluble in mitosis
HeLa Kyoto [4] = test: solubility in G1/S (NP-40 vs SDS abundance) (log2 ratio); higher = more soluble; settings: cell cycle stage: G1/S
[5] = cell cycle stage: early G1 (4.5 h after nocodazole release)
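Wherever melting temperature (median over replicates), in situ is given: HeLa Kyoto cells synchronized by double thymidine or nocodazole block, proteins quantified by TMT10plex mass spectrometry, three independent biological replicates.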
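Wherever solubility change mitosis vs G1/S (difference of NP-40 vs SDS log2 ratios) is given: synchronized HeLa Kyoto cells (double thymidine block for G1/S, nocodazole release for mitosis), protein amounts in NP-40 versus SDS lysates quantified by mass spectrometry, three biological replicates.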
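Wherever solubility in G1/S (NP-40 vs SDS abundance) is given: HeLa Kyoto cells arrested at G1/S by double thymidine block, proteins quantified by TMT10plex mass spectrometry in mild NP-40 versus SDS extracts, three biological replicates.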
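Wherever thermal stability score vs G1/S (z-score of summed log2 fold changes over temperatures) is given: synchronized HeLa Kyoto cells, proteins quantified by TMT10plex mass spectrometry, three biological replicates, mitosis taken 0.5 h after nocodazole release, G1/S directly after double thymidine block.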

Sequence | melting temperature (HeLa Kyoto [1]; cell cycle stage: G1/S) [°C] | melting temperature (HeLa Kyoto [1]; cell cycle stage: mitosis) [°C] | thermal stability score (HeLa Kyoto [2]; [5]) | thermal stability score (HeLa Kyoto [2]; cell cycle stage: mitosis) | solubility change mitosis (log2) (HeLa Kyoto [3]) | solubility in G1/S (log2) (HeLa Kyoto [4])
MSSGIHVALVTGGNKGIGLAIVRDLCRLFSGDVVLTARDVTRGQAAVQQLQAEGLSPRFHQLDIDDLQSIRALRDFLRKEYGGLDVLVNNAGIAFKVADPTPFHIQAEVTMKTNFFGTRDVCTELLPLIKPQGRVVNVSSIMSVRALKSCSPELQQKFRSETITEEELVGLMNKFVEDTKKGVHQKEGWPSSAYGVTKIGVTVLSRIHARKLSEQRKGDKILLNACCPGWVRTDMAGPKATKSPEEGAETPVYLALLPPDAEGPHGQFVSEKRVEQW [CBR1] | 53.2 | 53 | -1.36 | -0.874 | -0.0843 | 0.626
MATNFLAHEKIWFDKFKYDDAERRFYEQMNGPVAGASRQENGASVILRDIARARENIQKSLAGSSGPGASSGTSGDHGELVVRIASLEVENQSLRGVVQELQQAISKLEARLNVLEKSSPGHRATAPQTQHVSPMRQVEPPAKKPATPAEDDEDDDIDLFGSDNEEEDKEAAQLREERLRQYAEKKAKKPALVAKSSILLDVKPWDDETDMAQLEACVRSIQLDGLVWGASKLVPVGYGIRKLQIQCVVEDDKVGTDLLEEEITKFEEHVQSVDIAAFNKI [EEF1D] | 50.6 | 50.6 | 1.79 | 2.76 | 0.255 | 0.332
MDVLAEEFGNLTPEQLAAPIPTVEEKWRLLPAFLKVKGLVKQHIDSFNYFINVEIKKIMKANEKVTSDADPMWYLKYLNIYVGLPDVEESFNVTRPVSPHECRLRDMTYSAPITVDIEYTRGSQRIIRNALPIGRMPIMLRSSNCVLTGKTPAEFAKLNECPLDPGGYFIVKGVEKVILIQEQLSKNRIIVEADRKGAVGASVTSSTHEKKSRTNMAVKQGRFYLRHNTLSEDIPIVIIFKAMGVESDQEIVQMIGTEEHVMAAFGPSLEECQKAQIFTQMQALKYIGNKVRRQRMWGGGPKKTKIEEARELLASTILTHVPVKEFNFRAKCIYTAVMVRRVILAQGDNKVDDRDYYGNKRLELAGQLLSLLFEDLFKKFNSEMKKIADQVIPKQRAAQFDVVKHMRQDQITNGMVNAISTGNWSLKRFKMDRQGVTQVLSRLSYISALGMMTRISSQFEKTRKVSGPRSLQPSQWGMLCPSDTPEGEACGLVKNLALMTHITTDMEDGPIVKLASNLGVEDVNLLCGEELSYPNVFLVFLNGNILGVIRDHKKLVNTFRLMRRAGYINEFVSISTNLTDRCVYISSDGGRLCRPYIIVKKQKPAVTNKHMEELAQGYRNFEDFLHESLVEYLDVNEENDCNIALYEHTINKDTTHLEIEPFTLLGVCAGLIPYPHHNQSPRNTYQCAMGKQAMGTIGYNQRNRIDTLMYLLAYPQKPMVKTKTIELIEFEKLPAGQNATVAVMSYSGYDIEDALVLNKASLDRGFGRCLVYKNAKCTLKRYTNQTFDKVMGPMLDAATRKPIWRHEILDADGICSPGEKVENKQVLVNKSMPTVTQIPLEGSNVPQQPQYKDVPITYKGATDSYIEKVMISSNAEDAFLIKMLLRQTRRPEIGDKFSSRHGQKGVCGLIVPQEDMPFCDSGICPDIIMNPHGFPSRMTVGKLIELLAGKAGVLDGRFHYGTAFGGSKVKDVCEDLVRHGYNYLGKDYVTSGITGEPLEAYIYFGPVYYQKLKHMVLDKMHARARGPRAVLTRQPTEGRSRDGGLRLGEMERDCLIGYGASMLLLERLMISSDAFEVDVCGQCGLLGYSGWCHYCKSSCHVSSLRIPYACKLLFQELQSMNIIPRLKLSKYNE [POLR3B] | 48.9 | 49.6 | 0.664 | 1.01 | -0.161 | -0.184
MIRRVLPHGMGRGLLTRRPGTRRGGFSLDWDGKVSEIKKKIKSILPGRSCDLLQDTSHLPPEHSDVVIVGGGVLGLSVAYWLKKLESRRGAIRVLVVERDHTYSQASTGLSVGGICQQFSLPENIQLSLFSASFLRNINEYLAVVDAPPLDLRFNPSGYLLLASEKDAAAMESNVKVQRQEGAKVSLMSPDQLRNKFPWINTEGVALASYGMEDEGWFDPWCLLQGLRRKVQSLGVLFCQGEVTRFVSSSQRMLTTDDKAVVLKRIHEVHVKMDRSLEYQPVECAIVINAAGAWSAQIAALAGVGEGPPGTLQGTKLPVEPRKRYVYVWHCPQGPGLETPLVADTSGAYFRREGLGSNYLGGRSPTEQEEPDPANLEVDHDFFQDKVWPHLALRVPAFETLKVQSAWAGYYDYNTFDQNGVVGPHPLVVNMYFATGFSGHGLQQAPGIGRAVAEMVLKGRFQTIDLSPFLFTRFYLGEKIQENNII [FOXRED1] | 51.5 | 51.6 | 1.19 | 0.0541 | 0.0476 | -0.0625
MSLLGDPLQALPPSAAPTGPLLAPPAGATLNRLREPLLRRLSELLDQAPEGRGWRRLAELAGSRGRLRLSCLDLEQCSLKVLEPEGSPSLCLLKLMGEKGCTVTELSDFLQAMEHTEVLQLLSPPGIKITVNPESKAVLAGQFVKLCCRATGHPFVQYQWFKMNKEIPNGNTSELIFNAVHVKDAGFYVCRVNNNFTFEFSQWSQLDVCDIPESFQRSVDGVSESKLQICVEPTSQKLMPGSTLVLQCVAVGSPIPHYQWFKNELPLTHETKKLYMVPYVDLEHQGTYWCHVYNDRDSQDSKKVEIIIGRTDEAVECTEDELNNLGHPDNKEQTTDQPLAKDKVALLIGNMNYREHPKLKAPLVDVYELTNLLRQLDFKVVSLLDLTEYEMRNAVDEFLLLLDKGVYGLLYYAGHGYENFGNSFMVPVDAPNPYRSENCLCVQNILKLMQEKETGLNVFLLDMCRKRNDYDDTIPILDALKVTANIVFGYATCQGAEAFEIQHSGLANGIFMKFLKDRLLEDKKITVLLDEVAEDMGKCHLTKGKQALEIRSSLSEKRALTDPIQGTEYSAESLVRNLQWAKAHELPESMCLKFDCGVQIQLGFAAEFSNVMIIYTSIVYKPPEIIMCDAYVTDFPLDLDIDPKDANKGTPEETGSYLVSKDLPKHCLYTRLSSLQKLKEHLVFTVCLSYQYSGLEDTVEDKQEVNVGKPLIAKLDMHRGLGRKTCFQTCLMSNGPYQSSAATSGGAGHYHSLQDPFHGVYHSHPGNPSNVTPADSCHCSRTPDAFISSFAHHASCHFSRSNVPVETTDEIPFSFSDRLRISEK [MALT1] | 49 | 49.4 | 0.111 | 0.543 | -0.158 | -0.00137
